# Experimental data from IntAct's records for PubMed 29892012.
# B1: Zinc finger protein ZXDC (Homo sapiens), Q2QGD7 (parent)
# chain: MDLPALLPAPTARGGQHGGGPGPLRRAPAPLGASPARRRLLLVRGPEDGGPGARPGEASGPSPPPAEDDSDGDSFLVLLEVPHGGAAAEAAGSQEAEPGSRVNLASRPEQGPSGPAAPPGPGVAPAGAVTISSQDLLVRLDRGVLALSAPPGPATAGAAAPRRAPQASGPSTPGYRCPEPQCALAFAKKHQLKVHLLTHGGGQGRRPFKCPLEGCGWAFTTSYKLKRHLQSHDKLRPFGCPVGGCGKKFTTVYNLKAHMKGHEQESLFKCEVCAERFPTHAKLSSHQRSHFEPERPYKCDFPGCEKTFITVSALFSHNRAHFREQELFSCSFPGCSKQYDKACRLKIHLRSHTGERPFICDSDSCGWTFTSMSKLLRHRRKHDDDRRFTCPVEGCGKSFTRAEHLKGHSITHLGTKPFECPVEGCCARFSARSSLYIHSKKHVQDVGAPKSRCPVSTCNRLFTSKHSMKAHMVRQHSRRQDLLPQLEAPSSLTPSSELSSPGQSELTNMDLAALFSDTPANASGSAGGSDEALNSGILTIDVTSVSSSLGGNLPANNSSLGPMEPLVLVAHSDIPPSLDSPLVLGTAATVLQQGSFSVDDVQTVSAGALGCLVALPMKNLSDDPLALTSNSNLAAHITTPTSSSTPRENASVPELLAPIKVEPDSPSRPGAVGQQEGSHGLPQSTLPSPAEQHGAQDTELSAGTGNFYLESGGSARTDYRAIQLAKEKKQRGAGSNAGASQSTQRKIKEGKMSPPHFHASQNSWLCGSLVVPSGGRPGPAPAAGVQCGAQGVQVQLVQDDPSGEGVLPSARGPATFLPFLTVDLPVYVLQEVLPSSGGPAGPEATQFPGSTINLQDLQ
# B2: E3 ubiquitin-protein ligase DZIP3 (Homo sapiens), Q86Y13 (parent)
# chain: MDSLPDEFFVRHPAVEDQRKEETENKLEKSSGQLNKQENDIPTDLVPVNLLLEVKKLLNAINTLPKGVVPHIKKFLQEDFSFQTMQREVAANSQNGEEIVPALTLRFLITQLEAALRNIQAGNYTAHQINIGYYLTLLFLYGVALTERGKKEDYTEAENKFLVMKMMIQENEICENFMSLVYFGRGLLRCAQKRYNGGLLEFHKSLQEIGDKNDHWFDIDPTEDEDLPTTFKDLLNNFIKTTESNIMKQTICSYLDCERSCEADILKNTSYKGFFQLMCSKSCCVYFHKICWKKFKNLKYPGENDQSFSGKKCLKEGCTGDMVRMLQCDVPGIVKILFEVVRKDEYITIENLGASYRKLISLKITDTDIRPKISLKFNTKDEMPIFKLDYNYFYHLLHIIIISGTDIVRQIFDEAMPPPLLKKELLIHKNVLESYYNHLWTNHPLGGSWHLLYPPNKELPQSKQFDLCLLLALIKHLNVFPAPKKGWNMEPPSSDISKSADILRLCKYRDILLSEILMNGLTESQFNSIWKKVSDILLRLGMMQEDIDKVKENPIENISLDYHQLSVYLGIPVPEIIQRMLSCYQQGIALQSITGSQRIEIEELQNEEEELSPPLMEYNINVKSHPEIQFAEINKDGTSIPSESSTESLKDLQEVKSKQRKKKKTKNKKNKDSKEDQVPYVVEKEEQLRKEQANPHSVSRLIKDDASDVQEDSAMEDKFYSLDELHILDMIEQGSAGKVTTDYGETEKERLARQRQLYKLHYQCEDFKRQLRTVTFRWQENQMQIKKKDKIIASLNQQVAFGINKVSKLQRQIHAKDNEIKNLKEQLSMKRSQWEMEKHNLESTMKTYVSKLNAETSRALTAEVYFLQCRRDFGLLHLEQTEKECLNQLARVTHMAASNLESLQLKAAVDSWNAIVADVRNKIAFLRTQYNEQINKVKQGFALSTLPPVQLPPPPPSPEILMQQFLGRPLVKESFFRPILTVPQMPAVCPGVVSATGQPRAPLMTGIAWALPAPVGDAVPPSAGLRSDPSIMNWERITDRLKTAFPQQTRKELTDFLRKLKDAYGKSLSELTFDEIVCKISQFIDPKKSQSQGKSVSNVNCVSPSHSPSQPDAAQPPKPAWRPLTSQGPATWEGASNPDEEEEEEEPCVICHENLSPENLSVLPCAHKFHAQCIRPWLMQQGTCPTCRLHVLLPEEFPGHPSRQLPKI
# B3: Rho guanine nucleotide exchange factor 3 (Homo sapiens), Q9NR81 (parent)
# chain: MVAKDYPFYLTVKRANCSLELPPASGPAKDAEEPSNKRVKPLSRVTSLANLIPPVKATPLKRFSQTLQRSISFRSESRPDILAPRPWSRNAAPSSTKRRDSKLWSETFDVCVNQMLTSKEIKRQEAIFELSQGEEDLIEDLKLAKKAYHDPMLKLSIMTEQELNQIFGTLDSLIPLHEELLSQLRDVRKPDGSTEHVGPILVGWLPCLSSYDSYCSNQVAAKALLDHKKQDHRVQDFLQRCLESPFSRKLDLWNFLDIPRSRLVKYPLLLREILRHTPNDNPDQQHLEEAINIIQGIVAEINTKTGESECRYYKERLLYLEEGQKDSLIDSSRVLCCHGELKNNRGVKLHVFLFQEVLVITRAVTHNEQLCYQLYRQPIPVKDLLLEDLQDGEVRLGGSLRGAFSNNERIKNFFRVSFKNGSQSQTHSLQANDTFNKQQWLNCIRQAKETVLCAAGQAGVLDSEGSFLNPTTGSRELQGETKLEQMDQSDSESDCSMDTSEVSLDCERMEQTDSSCGNSRHGESNV
# partner: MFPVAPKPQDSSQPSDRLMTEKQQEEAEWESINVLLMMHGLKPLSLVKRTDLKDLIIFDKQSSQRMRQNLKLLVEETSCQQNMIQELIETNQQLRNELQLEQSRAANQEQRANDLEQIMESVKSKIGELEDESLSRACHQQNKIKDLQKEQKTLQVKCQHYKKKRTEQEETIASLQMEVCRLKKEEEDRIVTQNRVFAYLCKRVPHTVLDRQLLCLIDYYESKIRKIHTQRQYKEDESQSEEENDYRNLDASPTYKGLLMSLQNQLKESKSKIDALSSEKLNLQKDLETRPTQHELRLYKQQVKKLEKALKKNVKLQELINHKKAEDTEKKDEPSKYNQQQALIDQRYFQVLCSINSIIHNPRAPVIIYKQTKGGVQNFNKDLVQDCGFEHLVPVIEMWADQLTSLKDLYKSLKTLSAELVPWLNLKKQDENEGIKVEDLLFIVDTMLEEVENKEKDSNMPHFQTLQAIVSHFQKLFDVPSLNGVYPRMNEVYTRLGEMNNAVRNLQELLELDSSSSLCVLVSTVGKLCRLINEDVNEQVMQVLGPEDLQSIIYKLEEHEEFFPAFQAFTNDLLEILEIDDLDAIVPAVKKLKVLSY
# B4: Tumor suppressor candidate 2 (Homo sapiens), O75896 (parent)
# chain: MGASGSKARGLWPFASAAGGGGSEAAGAEQALVRPRGRAVPPFVFTRRGSMFYDEDGDLAHEFYEETIVTKNGQKRAKLRRVHKNLIPQGIVKLDHPRIHVDFPVILYEV
# B5: Abl interactor 2 (Homo sapiens), Q9NYB9 (parent)
# chain: MAELQMLLEEEIPGGRRALFDSYTNLERVADYCENNYIQSADKQRALEETKAYTTQSLASVAYLINTLANNVLQMLDIQASQLRRMESSINHISQTVDIHKEKVARREIGILTTNKNTSRTHKIIAPANLERPVRYIRKPIDYTILDDIGHGVKWLLRFKVSTQNMKMGGLPRTTPPTQKPPSPPMSGKGTLGRHSPYRTLEPVRPPVVPNDYVPSPTRNMAPSQQSPVRTASVNQRNRTYSSSGSSGGSHPSSRSSSRENSGSGSVGVPIAVPTPSPPSVFPAPAGSAGTPPLPATSASAPAPLVPATVPSSTAPNAAAGGAPNLADGFTSPTPPVVSSTPPTGHPVQFYSMNRPASRHTPPTIGGSLPYRRPPSITSQTSLQNQMNGGPFYSQNPVSDTPPPPPPVEEPVFDESPPPPPPPEDYEEEEAAVVEYSDPYAEEDPPWAPRSYLEKVVAIYDYTKDKEDELSFQEGAIIYVIKKNDDGWYEGVMNGVTGLFPGNYVESIMHYSE
# partner: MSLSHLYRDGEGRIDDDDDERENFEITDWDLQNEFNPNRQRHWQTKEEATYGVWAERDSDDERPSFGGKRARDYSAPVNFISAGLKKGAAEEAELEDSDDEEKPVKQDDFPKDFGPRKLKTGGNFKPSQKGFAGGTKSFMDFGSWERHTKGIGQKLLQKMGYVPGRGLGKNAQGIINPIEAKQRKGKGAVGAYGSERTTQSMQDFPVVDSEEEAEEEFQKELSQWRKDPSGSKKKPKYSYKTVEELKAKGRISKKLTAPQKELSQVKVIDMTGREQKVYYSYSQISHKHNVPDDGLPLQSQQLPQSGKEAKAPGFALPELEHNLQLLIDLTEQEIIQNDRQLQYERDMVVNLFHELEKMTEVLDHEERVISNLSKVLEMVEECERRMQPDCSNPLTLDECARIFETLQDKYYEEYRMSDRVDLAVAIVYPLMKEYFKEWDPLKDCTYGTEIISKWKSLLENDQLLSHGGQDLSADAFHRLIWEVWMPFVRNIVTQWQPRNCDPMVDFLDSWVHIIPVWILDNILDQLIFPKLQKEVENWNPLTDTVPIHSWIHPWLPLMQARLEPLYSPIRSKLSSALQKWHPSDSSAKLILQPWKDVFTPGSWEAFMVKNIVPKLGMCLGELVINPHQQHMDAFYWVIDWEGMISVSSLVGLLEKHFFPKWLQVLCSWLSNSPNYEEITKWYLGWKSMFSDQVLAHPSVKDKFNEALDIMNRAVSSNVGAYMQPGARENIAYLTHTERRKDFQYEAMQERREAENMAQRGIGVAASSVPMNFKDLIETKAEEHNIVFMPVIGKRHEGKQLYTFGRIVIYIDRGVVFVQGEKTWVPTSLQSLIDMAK
# B6: Abl interactor 2 (Homo sapiens), Q9NYB9 (parent)
# chain: B5 chain
# partner: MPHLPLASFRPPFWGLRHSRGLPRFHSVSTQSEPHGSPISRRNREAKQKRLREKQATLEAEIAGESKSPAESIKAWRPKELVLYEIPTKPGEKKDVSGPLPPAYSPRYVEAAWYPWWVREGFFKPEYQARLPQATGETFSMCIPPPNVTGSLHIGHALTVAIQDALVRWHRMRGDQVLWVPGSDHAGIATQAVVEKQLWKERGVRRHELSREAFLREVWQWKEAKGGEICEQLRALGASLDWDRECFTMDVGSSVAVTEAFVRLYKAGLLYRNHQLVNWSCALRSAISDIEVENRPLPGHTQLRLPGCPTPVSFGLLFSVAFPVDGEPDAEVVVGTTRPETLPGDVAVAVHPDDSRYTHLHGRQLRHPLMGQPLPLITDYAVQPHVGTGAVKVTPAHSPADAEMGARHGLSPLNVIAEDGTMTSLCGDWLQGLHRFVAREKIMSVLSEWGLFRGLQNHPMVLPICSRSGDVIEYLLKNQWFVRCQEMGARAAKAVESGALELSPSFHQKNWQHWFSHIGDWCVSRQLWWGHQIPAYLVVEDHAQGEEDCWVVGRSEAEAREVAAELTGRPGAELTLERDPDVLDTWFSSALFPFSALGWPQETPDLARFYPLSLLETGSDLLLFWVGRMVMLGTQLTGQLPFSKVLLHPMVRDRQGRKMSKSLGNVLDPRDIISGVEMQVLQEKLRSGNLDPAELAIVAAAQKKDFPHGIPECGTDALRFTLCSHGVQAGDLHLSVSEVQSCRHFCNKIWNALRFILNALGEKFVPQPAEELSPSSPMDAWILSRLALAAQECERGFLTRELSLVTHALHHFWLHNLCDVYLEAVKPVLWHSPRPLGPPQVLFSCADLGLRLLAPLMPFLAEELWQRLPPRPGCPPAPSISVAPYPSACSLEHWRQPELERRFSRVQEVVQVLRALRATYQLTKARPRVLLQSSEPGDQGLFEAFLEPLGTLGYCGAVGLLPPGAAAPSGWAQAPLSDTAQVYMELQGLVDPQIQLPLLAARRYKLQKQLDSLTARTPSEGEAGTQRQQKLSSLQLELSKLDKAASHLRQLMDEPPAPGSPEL
# Variants of: B1
# Details: with wdr5_human WDR5, P61964
row,effect of a mutation on the interaction,Variant
1,with no effect,T589M

# Variants of: B2
# Details: with ub2e2_human UBE2E2, Q96LR5
# ub2e2_human UBE2E2, Q96LR5, sequence (Q96LR5 whole entry): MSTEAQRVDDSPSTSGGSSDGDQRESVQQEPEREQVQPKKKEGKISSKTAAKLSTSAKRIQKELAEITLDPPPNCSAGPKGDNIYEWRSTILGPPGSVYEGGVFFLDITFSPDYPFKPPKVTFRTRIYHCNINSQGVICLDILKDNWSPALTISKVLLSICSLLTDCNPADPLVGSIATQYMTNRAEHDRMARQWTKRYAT
row,effect of a mutation on the interaction,Variant
1,disrupting interaction strength,M1032R

# Variants of: B2
# Details: with znf24_human ZNF24, P17028
# znf24_human ZNF24, P17028, sequence (P17028 whole entry): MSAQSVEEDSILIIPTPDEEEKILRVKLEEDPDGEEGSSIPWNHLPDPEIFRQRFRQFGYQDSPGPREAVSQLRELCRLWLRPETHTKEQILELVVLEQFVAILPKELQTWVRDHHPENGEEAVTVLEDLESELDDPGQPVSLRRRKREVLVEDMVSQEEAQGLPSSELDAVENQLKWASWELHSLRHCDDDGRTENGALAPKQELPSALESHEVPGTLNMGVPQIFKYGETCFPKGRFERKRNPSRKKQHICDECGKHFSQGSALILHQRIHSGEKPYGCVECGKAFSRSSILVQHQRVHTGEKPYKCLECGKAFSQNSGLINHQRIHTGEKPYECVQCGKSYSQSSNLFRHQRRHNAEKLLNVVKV
row,effect of a mutation on the interaction,Variant
1,disrupting interaction strength,M1032R

# Variants of: B2
# Details: with hnrl1_human HNRNPUL1, Q9BUJ2
# hnrl1_human HNRNPUL1, Q9BUJ2, sequence (Q9BUJ2 whole entry): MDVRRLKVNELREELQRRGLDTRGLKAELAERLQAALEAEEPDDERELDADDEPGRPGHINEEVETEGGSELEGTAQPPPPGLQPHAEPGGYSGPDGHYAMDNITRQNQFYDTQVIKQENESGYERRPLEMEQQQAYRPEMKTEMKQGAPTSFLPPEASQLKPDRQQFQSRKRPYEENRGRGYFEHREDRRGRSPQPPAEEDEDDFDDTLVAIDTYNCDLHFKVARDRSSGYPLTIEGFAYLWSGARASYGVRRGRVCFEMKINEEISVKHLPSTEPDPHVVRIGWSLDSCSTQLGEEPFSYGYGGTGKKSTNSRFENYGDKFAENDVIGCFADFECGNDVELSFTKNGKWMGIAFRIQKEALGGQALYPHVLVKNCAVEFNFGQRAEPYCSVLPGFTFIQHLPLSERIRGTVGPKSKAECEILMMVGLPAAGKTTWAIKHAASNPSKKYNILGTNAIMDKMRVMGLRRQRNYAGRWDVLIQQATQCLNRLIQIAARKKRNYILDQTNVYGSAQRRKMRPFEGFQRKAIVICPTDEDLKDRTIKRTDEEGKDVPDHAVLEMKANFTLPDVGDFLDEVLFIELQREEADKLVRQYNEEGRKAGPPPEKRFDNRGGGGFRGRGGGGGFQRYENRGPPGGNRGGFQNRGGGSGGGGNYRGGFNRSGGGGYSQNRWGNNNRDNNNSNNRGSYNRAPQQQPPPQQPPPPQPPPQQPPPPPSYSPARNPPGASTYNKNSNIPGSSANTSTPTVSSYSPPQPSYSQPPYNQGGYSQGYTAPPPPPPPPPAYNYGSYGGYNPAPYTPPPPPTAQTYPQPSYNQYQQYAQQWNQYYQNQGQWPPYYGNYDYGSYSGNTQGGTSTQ
row,effect of a mutation on the interaction,Variant
1,with no effect,M1032R

# Variants of: B2
# Details: with zch10_human ZCCHC10, Q8TBK6
# zch10_human ZCCHC10, Q8TBK6, sequence (Q8TBK6 whole entry): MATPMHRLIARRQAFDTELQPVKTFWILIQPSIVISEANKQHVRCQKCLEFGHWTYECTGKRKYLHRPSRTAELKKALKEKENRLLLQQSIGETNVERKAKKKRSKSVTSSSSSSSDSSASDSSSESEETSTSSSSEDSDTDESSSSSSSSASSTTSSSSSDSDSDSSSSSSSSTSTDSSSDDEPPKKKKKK
row,effect of a mutation on the interaction,Variant
1,disrupting interaction strength,M1032R

# Variants of: B3
# Details: with cep70_human CEP70, Q8NHQ1
row,effect of a mutation on the interaction,Variant
1,with no effect,P34S

# Variants of: B4
# Details: with rbpms_human RBPMS
row,effect of a mutation on the interaction,Variant
1,with no effect,R76Q

# Variants of: B4
# Details: with mdfi_human MDFI
row,effect of a mutation on the interaction,Variant
1,disrupting interaction strength,R76Q

# Variants of: B5
# Details: with tfp11_human TFIP11, Q9UBB9
row,effect of a mutation on the interaction,Variant
1,with no effect,E202K

# Variants of: B5
# Details: with tfp11_human TFIP11, Q9UBB9
# Remark: another data set of the same source
row,effect of a mutation on the interaction,Variant
1,with no effect,R373C

# Variants of: B6
# Details: with syvm_human VARS2, Q5ST30
row,effect of a mutation on the interaction,Variant
1,with no effect,E202K
